Data: article PMC5038948, “The Role of Neutrophil Proteins on the Amyloid Beta-RAGE Axis” (PLoS ONE, 2016)
pIC50, pKd: −log10 of the molar value.

Legend:
RAGE Fc chimera [1] = molecular target: T1, RAGE Fc chimera (Homo sapiens, UniProt Q15109); test: Far-Western dot blot: binding of RAGE to spotted proteins ± GM-0111; design: purchased R&D Systems Inc. (Minneapolis, MN); details: 1 μg spotted protein (0.5 μg Aβ1–42)
Procedure: (§1) All statistics were performed using Graph Pad Prism 6 (GraphPad Software, La Jolla, CA). Data are represented as mean± SEM of results. […] Two-way analysis of variances (ANOVAs) were performed with Dunnett’s multiple comparison tests. […] Kruskal-Wallis tests with Dunn’s multiple comparison tests were used to analyze binding by Far-Western dot blotting (see figure legends 3 and 6 for details on multiple comparison tests). […] To obtain dissociation constants (Kd), half-maximal inhibitory concentrations (IC50), and maximum absorbance values, BSA was subtracted as background and values were fitted to a curve of nonlinear regression.

RAGE Fc chimera [2] = molecular target: T1, RAGE Fc chimera; test: ELISA: binding of RAGE to coated neutrophil proteins; design: purchased R&D Systems Inc. (Minneapolis, MN); details: for maximum absorbance value for RAGE binding: ELISA, BSA subtracted as background, nonlinear regression fit; for Log binding (RAGE): wells coated 0.5 μg/well protein, log-transformed OD 492 nm, mean ± SEM
Procedure: (§2) The plates were washed three times with PBS containing 0.05% tween (PBST), and then blocked in PBST containing 3% bovine serum albumin (BSA). Indicated proteins were added to the plate in 50 μL PBST containing 0.1% BSA and incubated at 37°C for 70 mins. Wells were washed four times with PBST, and then incubated with 50 μL of goat anti-RAGE primary antibody (0.5 μg/ml) or mouse anti-APP/Aβ antibody (0.5 μg/ml-1 μg/ml) for 1 h. After washing the wells four times with PBST, 50 μL of rabbit anti-goat at 0.16 μg/ml or donkey anti-mouse at 0.04–0.08 μg/ml secondary antibodies were added for 1 h at room temperature.
Goat anti-RAGE primary antibody at 0.5 μg/ml was used to detect bound RAGE.
as §1

Aβ1–42 [3] = molecular target: T2, Aβ1–42 (Homo sapiens, UniProt P05067); test: ELISA: binding of Aβ1–42 to coated neutrophil proteins; details: for Log binding (Aβ1–42): 0.5 μg/well coated protein, with protease inhibitor cocktail, log OD 492 nm, mean ± SEM, n = 3; for maximum absorbance value for Aβ1–42 binding: ELISA with protease inhibitors, BSA subtracted, nonlinear regression fit
T2 construct: Amyloid beta 1–42 (Aβ1–42), a known RAGE ligand; purchased Bachem (Torrance, CA)
Procedure: as §2, §1

Aβ1–42 [4] = molecular target: T2, Aβ1–42; test: Far-Western dot blot: binding of Aβ1–42 to spotted neutrophil proteins; details: Aβ1–42 […] (56 nM) with protease inhibitor cocktail; 1 μg spotted protein
Procedure: After spotting, membranes were rinsed with ultrapure water, and Ponceau S (Sigma Aldrich) was used to stain for spotted proteins. Ponceau S was rinsed off with ultrapure water, and membrane blots were blocked for 2 h at room temperature in PBST containing 3% BSA. […] Blots were washed three times with PBST for 10 min, and then incubated with either rabbit anti-RAGE primary antibody (0.8μg/ml) or mouse anti-APP/Aβ (0.25μg/ml) for 2 h at room temperature. Blots were washed three times with PBST for 10 min, and then incubated with donkey anti-rabbit or donkey anti-mouse secondary antibodies at 0.04μg/ml for 45 min at room temperature. Blots were washed three times with PBST. Enhanced chemiluminescent or SuperSignal West femto maximum sensitivity substrates (Pierce) were used to develop blots. Mean dot densities were quantified and normalized to ponceau S dot densities using Image J software (National Institutes of Health (NIH), Bethesda, MD).
Blots were incubated with rocking overnight at 4°C.
as §1

RAGE Fc chimera [5] = molecular target: T1, RAGE Fc chimera; test: ELISA: Aβ1–42 binding to RAGE after pre-incubation of Aβ1–42 with neutrophil proteins; design: purchased R&D Systems Inc. (RAGE Fc chimera); Bachem (Aβ1–42)
Procedure: as §2
In this set of experiments, the maxisorp plates were coated with RAGE Fc chimera (0.5 μg/well, 83.3 nM) overnight at 4°C.
as §1

Aβ1–42 binding to RAGE = molecular target: T3, Aβ1–42 binding to RAGE (Homo sapiens, UniProt Q15109); test: ELISA: competitive inhibition of Aβ1–42 binding to RAGE by neutrophil proteins added simultaneously
T3 construct: purchased R&D Systems Inc. (RAGE Fc chimera); Bachem (Aβ1–42)
T3 sequence (Q15109 with tags, fused parts or gaps limits assumed): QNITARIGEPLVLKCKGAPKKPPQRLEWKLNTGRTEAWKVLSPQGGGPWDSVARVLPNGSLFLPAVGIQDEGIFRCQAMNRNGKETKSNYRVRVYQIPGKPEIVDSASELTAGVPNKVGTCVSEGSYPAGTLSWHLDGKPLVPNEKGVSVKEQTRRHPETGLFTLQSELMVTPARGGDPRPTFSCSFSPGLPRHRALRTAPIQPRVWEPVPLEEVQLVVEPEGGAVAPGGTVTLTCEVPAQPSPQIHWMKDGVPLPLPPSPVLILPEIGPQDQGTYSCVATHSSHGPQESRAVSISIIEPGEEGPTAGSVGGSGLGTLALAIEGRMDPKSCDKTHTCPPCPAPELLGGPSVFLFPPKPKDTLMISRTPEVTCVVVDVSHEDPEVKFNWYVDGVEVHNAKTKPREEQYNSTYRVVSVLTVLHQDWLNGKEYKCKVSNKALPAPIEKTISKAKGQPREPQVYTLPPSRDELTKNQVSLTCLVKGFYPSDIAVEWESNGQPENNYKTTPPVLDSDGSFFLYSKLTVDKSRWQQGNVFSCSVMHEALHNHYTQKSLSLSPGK
Procedure: as §2, §1

T1 sequence (Q15109 with tags, fused parts or gaps limits assumed): as above

Row | Substance | binding of RAGE (far-Western dot blot) (RAGE Fc chimera [1]) | maximum absorbance value for RAGE binding (RAGE Fc chimera [2]) | Log binding (RAGE) (RAGE Fc chimera [2]; RAGE 0 nM (background)) | Log binding (RAGE) (RAGE Fc chimera [2]; RAGE 0.83 nM) | Log binding (RAGE) (RAGE Fc chimera [2]; RAGE 1.67 nM) | Log binding (RAGE) (RAGE Fc chimera [2]; RAGE 3.33 nM) | Log binding (Aβ1–42) (Aβ1–42 [3]; Aβ1–42 0 nM (background)) | Log binding (Aβ1–42) (Aβ1–42 [3]; Aβ1–42 3.47 nM) | Log binding (Aβ1–42) (Aβ1–42 [3]; Aβ1–42 13.89 nM) | Log binding (Aβ1–42) (Aβ1–42 [3]; Aβ1–42 27.78 nM) | Log binding (Aβ1–42) (Aβ1–42 [3]; Aβ1–42 55.56 nM) | maximum absorbance value for Aβ1–42 binding (Aβ1–42 [3]) | binding of Aβ1–42 (far-Western dot blot) (Aβ1–42 [4]) | maximum absorbance value for Aβ1–42 binding to RAGE (RAGE Fc chimera [5]; Aβ1–42 pre-incubated with neutrophil elastase 2 μg/ml) [OD 492 nm] | pKd (RAGE Fc chimera [5]; read-out: KD value for Aβ1–42 binding to RAGE, Aβ1–42 pre-incubated overnight 4°C with neutrophil elastase 2 μg/ml (80 nM)) | Log binding (Aβ1–42) (Aβ1–42 [3]; Aβ1–42 […]) | pIC50 (Aβ1–42 binding to RAGE; read-out: IC50 for inhibition of Aβ1–42 binding to RAGE, Aβ1–42 11 nM added simultaneously with the protein to RAGE-coated wells, absence of protease inhibitors) | inhibition of Aβ1–42 binding to RAGE in the presence of protease inhibitors (Aβ1–42 binding to RAGE; with protease inhibitor cocktail, Aβ1–42 11 nM)
1 | cathepsin G | not significantly higher than RAGE binding to BSA | 2.14 | -0.426 | • 0.101±0.084 • p<0.0001 | • 0.166±0.092 • p<0.0001 | • 0.192±0.096 • p<0.0001 | • -0.884±0.103 • p = 0.0004 | • -0.368±0.157 • p<0.0001 | • 0.019±0.165 • p<0.0001 | • 0.151±0.149 • p<0.0001 | • 0.310±0.125 • p<0.0001 | 3.54 | strong binding | – | – | – | – | –
2 | neutrophil elastase | did not detect visible binding | 1.11 | -0.756 | -0.376 | • -0.274±0.113 • p = 0.046 | • -0.121±0.104 • p = 0.003 | -1.061 | -0.961 | • -0.720±0.151 • p = 0.0064 | • -0.414±0.154 • p<0.0001 | • -0.146±0.153 • p<0.0001 | 5.89 | low binding | 0.15 | 6.88 | • -0.890±0.127 • p = 0.0064 | 8.31 | No inhibition
3 | bovine serum albumin [BSA, reference compound] | did not detect visible binding | – | – | – | – | – | – | – | – | – | – | – | No binding | – | – | – | – | –
